In patent US20030119145A1:
Several values for one entry are separate records, joined by “and”; a condition that tells them apart may be missing. Identical values can stand only once.

Columns and labels:
[1] = biological target: CYP52A5A, omega-hydroxylating cytochrome P450 of Candida tropicalis (Candida tropicalis); assay: cell-based or functional assay
cytochrome c [2] = assay: cell-based or functional assay
cytochrome c [3] = biological target: cytochrome c
[4] = biological target: CYP52A5A, omega-hydroxylating cytochrome P450 of Candida tropicalis

truncated (soluble) CPRA from Candida tropicalis, produced in Sf9 insect cells (from UniProt P37201 33-680) (enzyme)
Enhancement (%) of hydroxylation of C14 myristic acid, 4 µl sCPR added [1]: 2.4%
Enhancement (%) of hydroxylation of C14 myristic acid, 8 µl sCPR added [1]: 3.4%
Enhancement (%) of hydroxylation of C14 myristic acid, 16 µl sCPR added [1]: 3.4%
Enhancement (%) of hydroxylation of C14 myristic acid, 32 µl sCPR added [1]: 8.1%
Enhancement (%) of hydroxylation of C14 myristic acid, 64 µl sCPR added [1]: 6.9%
enhancement of formation of omega-hydroxylauric acid by CYP52A5A on addition of soluble CPR (TLC autoradiogram) [1]: 4.4 fold
increase of omega-hydroxylauric acid formation on addition of soluble CPR in the presence of membrane associated CPR [1]: 6%
omega-hydroxylauric acid (nmol), CYP52A5A microsomes with soluble CPR added [1]: 0.07 nmol
omega-hydroxylauric acid (nmol), CYP52A5A/CPRA microsomes with soluble CPR added [1]: 0.115 nmol
Sp. Act. (reduction of cytochrome c), soluble fraction of Sf9 cells expressing truncated (soluble) CPRA (cytochrome c [2]): 8.42 µmol/min/mg and 4.4 µmol/min/mg
specific activity (reduction of cytochrome c) relative to microsomes of cells expressing the unmodified CPR (cytochrome c [2]): 20 fold

B1: polyhistidine tagged soluble CPRA from Candida tropicalis, produced in E. coli (pET15b) (protein)
chain: MHHHHHHSSGLVPRGSHMDTGFLNTDSGSNSRDVLLTLKKNNKNTLLLFGSQTGTAEDYANKLSRELHSRFGLKTMVADFADYDWDNFGDITEDILVFFIVATYGEGEPTDNADEFHTWLTEEADTLSTLKYTVFGLGNSTYEFFNAIGRKFDRLLSEKGGDRFAEYAEGDDGTGTLDEDFMAWKDNVFDALKNDLNFEEKELKYEPNVKLTERDDLSAADSQVSLGEPNKKYINSEGIDLTKGPFDHTHPYLARITETRELFSSKDRHCIHVEFDISESNLKYTTGDHLAIWPSNSDENIKQFAKCFGLEDKLDTVIELKALDSTYTIPFPTPITYGAVIRHHLEISGPVSRQFFLSIAGFAPDEETKKAFTRLGGDKQEFAAKVTRRKFNIADALLYSSNNAPWSDVPFEFLIENVPHLTPRYYSISSSSLSEKQLINVTAVVEAEEEADGRPVTGVVTNLLKNVEIVQNKTGEKPLVHYDLSGPRGKFNKFKLPVHVRRSNFKLPKNSTTPVILIGPGTGVAPLRGFVRERVQQVKNGVNVGKTLLFYGCRNSNEDFLYKQEWAEYASVLGENFEMFNAFSRQDPSKKVYVQDKILENSQLVHELLTEGAIIYVCGDASRMARDVQTTISKIVAKSREISEDKAAELVKSWKVQNRYQEDVW
Sp. Act. (reduction of cytochrome c), E. coli extract (cytochrome c [3]): 5.3 µmol/min/mg
Sp. Act. (reduction of cytochrome c), concentrated & dialyzed purified protein (cytochrome c [3]): 420 µmol/min/mg

B2: truncated (soluble) CPRA from Candida tropicalis, produced in Sf9 insect cells (protein)
chain: MDTGFLNTDSGSNSRDVLLTLKKNNKNTLLLFGSQTGTAEDYANKLSRELHSRFGLKTMVADFADYDWDNFGDITEDILVFFIVATYGEGEPTDNADEFHTWLTEEADTLSTLKYTVFGLGNSTYEFFNAIGRKFDRLLSEKGGDRFAEYAEGDDGTGTLDEDFMAWKDNVFDALKNDLNFEEKELKYEPNVKLTERDDLSAADSQVSLGEPNKKYINSEGIDLTKGPFDHTHPYLARITETRELFSSKDRHCIHVEFDISESNLKYTTGDHLAIWPSNSDENIKQFAKCFGLEDKLDTVIELKALDSTYTIPFPTPITYGAVIRHHLEISGPVSRQFFLSIAGFAPDEETKKAFTRLGGDKQEFAAKVTRRKFNIADALLYSSNNAPWSDVPFEFLIENVPHLTPRYYSISSSSLSEKQLINVTAVVEAEEEADGRPVTGVVTNLLKNVEIVQNKTGEKPLVHYDLSGPRGKFNKFKLPVHVRRSNFKLPKNSTTPVILIGPGTGVAPLRGFVRERVQQVKNGVNVGKTLLFYGCRNSNEDFLYKQEWAEYASVLGENFEMFNAFSRQDPSKKVYVQDKILENSQLVHELLTEGAIIYVCGDASRMARDVQTTISKIVAKSREISEDKAAELVKSWKVQNRYQEDVW
Conversion (%) of C14 myristic acid, 4 µl sCPR added to CYP52A5A microsomes [4]: 12.4%
Conversion (%) of C14 myristic acid, 8 µl sCPR added to CYP52A5A microsomes [4]: 13.4%
Conversion (%) of C14 myristic acid, 16 µl sCPR added to CYP52A5A microsomes [4]: 13.4%
Conversion (%) of C14 myristic acid, 32 µl sCPR added to CYP52A5A microsomes [4]: 18.1%
Conversion (%) of C14 myristic acid, 64 µl sCPR added to CYP52A5A microsomes [4]: 16.9%
hydroxylation activity on addition of soluble CPR [4]: increased the hydroxylation activity approximately 5-fold
net counts in product (omega-hydroxylation of [14C]-lauric acid), CYP52A5A microsomes with soluble CPR added [4]: 7930 net counts
net counts in product (omega-hydroxylation of [14C]-lauric acid), CYP52A5A/CPRA microsomes with soluble CPR added [4]: 13200 net counts

B3: full-length, membrane associated CPRA (NADPH-cytochrome P450 reductase) from Candida tropicalis (protein)
chain: MALDKLDLYVIITLVVAVAAYFAKNQFLDQPQDTGFLNTDSGSNSRDVLLTLKKNNKNTLLLFGSQTGTAEDYANKLSRELHSRFGLKTMVADFADYDWDNFGDITEDILVFFIVATYGEGEPTDNADEFHTWLTEEADTLSTLKYTVFGLGNSTYEFFNAIGRKFDRLLSEKGGDRFAEYAEGDDGTGTLDEDFMAWKDNVFDALKNDLNFEEKELKYEPNVKLTERDDLSAADSQVSLGEPNKKYINSEGIDLTKGPFDHTHPYLARITETRELFSSKDRHCIHVEFDISESNLKYTTGDHLAIWPSNSDENIKQFAKCFGLEDKLDTVIELKALDSTYTIPFPTPITYGAVIRHHLEISGPVSRQFFLSIAGFAPDEETKKAFTRLGGDKQEFAAKVTRRKFNIADALLYSSNNAPWSDVPFEFLIENVPHLTPRYYSISSSSLSEKQLINVTAVVEAEEEADGRPVTGVVTNLLKNVEIVQNKTGEKPLVHYDLSGPRGKFNKFKLPVHVRRSNFKLPKNSTTPVILIGPGTGVAPLRGFVRERVQQVKNGVNVGKTLLFYGCRNSNEDFLYKQEWAEYASVLGENFEMFNAFSRQDPSKKVYVQDKILENSQLVHELLTEGAIIYVCGDASRMARDVQTTISKIVAKSREISEDKAAELVKSWKVQNRYQEDVW
net counts in product (omega-hydroxylation of [14C]-lauric acid), CYP52A5A/CPRA microsomes without soluble CPR [4]: 12400 net counts

B4: soluble CPRA from Candida tropicalis produced in E. coli (pProEX-1), his-tag removed with TEV protease (protein)
chain: DTGFLNTDSGSNSRDVLLTLKKNNKNTLLLFGSQTGTAEDYANKLSRELHSRFGLKTMVADFADYDWDNFGDITEDILVFFIVATYGEGEPTDNADEFHTWLTEEADTLSTLKYTVFGLGNSTYEFFNAIGRKFDRLLSEKGGDRFAEYAEGDDGTGTLDEDFMAWKDNVFDALKNDLNFEEKELKYEPNVKLTERDDLSAADSQVSLGEPNKKYINSEGIDLTKGPFDHTHPYLARITETRELFSSKDRHCIHVEFDISESNLKYTTGDHLAIWPSNSDENIKQFAKCFGLEDKLDTVIELKALDSTYTIPFPTPITYGAVIRHHLEISGPVSRQFFLSIAGFAPDEETKKAFTRLGGDKQEFAAKVTRRKFNIADALLYSSNNAPWSDVPFEFLIENVPHLTPRYYSISSSSLSEKQLINVTAVVEAEEEADGRPVTGVVTNLLKNVEIVQNKTGEKPLVHYDLSGPRGKFNKFKLPVHVRRSNFKLPKNSTTPVILIGPGTGVAPLRGFVRERVQQVKNGVNVGKTLLFYGCRNSNEDFLYKQEWAEYASVLGENFEMFNAFSRQDPSKKVYVQDKILENSQLVHELLTEGAIIYVCGDASRMARDVQTTISKIVAKSREISEDKAAELVKSWKVQNRYQEDVW
specific activity in reduction of cytochrome c (cytochrome c [3]): 198 U/mg
